# From patent US20230102344A1
# How the values were obtained:
# [1] = biological target: cynomolgus TCRvβ (BJM0847) (cynomolgus); assay: SPR (Biacore): antibody captured on Protein L chip, BJM0847 as analyte, 1:1 fit
# [2] = biological target: human TCRvβ (BIM0444) (human); assay: SPR (Biacore): antibody captured via anti-human Fc on CM5, BIM0444 as analyte, 1:1 fit
# [3] = biological target: cynomolgus TCRvβ (BJM0847) (cynomolgus); assay: SPR (Biacore): antibody amine-coupled to CM5, BJM0847 as analyte, 1:1 fit
# Chain of human TCRvβ (BIM0444) (human) (A0A0K0K1A5 22-114): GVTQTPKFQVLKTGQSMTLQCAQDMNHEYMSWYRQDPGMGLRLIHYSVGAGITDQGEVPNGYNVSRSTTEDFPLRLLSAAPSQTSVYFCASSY
binder,measurement,setting,value
"BJM0502 (scFv, part only; not given: Fc scaffold making it bivalent, part only) scFv, part: QVQLVQSGAEVKKPGSSVKVSCKASGHDFHLWYIHWVRQAPGQGLEWMGRVSAGSGNVKYNEKFKGRVTITADTSTSTAYMELSSLRSEDTAVYYCAGSYYSYDVLDYWGQGTTVTVSSGGGGSGGGGSGGGGSGGGGSDIQMTQSPSFLSASVGDRVTITCKASQNVDNKVAWHQQKPGKAPKALIYSSSHRYKGVPSRFSGSGSGTEFTLTISSLQPEDFATYFCQQFKSYPLTFGQGTKLEIK",Kd,[1],387 nM
same,Kd,[2],20 nM
"A-H.68 (scFv, not shown: a dimerising Fc or GST) scFv: QVQLVQSGAEVKKPGSSVKVSCKASGHDFRLTYIHWVRQAPGQGLEWMGRISAGSGNVKYNEKFKGRVTITADTSTSTAYMELSSLRSEDTAVYYCAVSYYSYDVLDYWGQGTTVTVSSGGGGSGGGGSGGGGSGGGGSDIQMTQSPSFLSASVGDRVTITCKASQNVADRVAWYQQKPGKAPKALIYSSSHRYKGVPSRFSGSGSGTEFTLTISSLQPEDFATYFCQQFKSYPLTFGQGTKLEIK",Kd,[3],59 nM
same,Kd,[2],0.829 nM
A-H.59 (scFv) scFv: QVQLVQSGAEVKKPGSSVKVSCKASGHDFRLTYIHWVRQAPGQGLEWMGRIYAGSGNVKYNEKFKGRVTITADTSTSTAYMELSSLRSEDTAVYYCAVSYYSYDVLDYWGQGTTVTVSSGGGGSGGGGSGGGGSGGGGSDIQMTQSPSFLSASVGDRVTITCKASQNVADRVVWHQQKPGKAPKALIYSSSHRYKGVPSRFSGSGSGTEFTLTISSLQPEDFATYFCQQFKSYPLTFGQGTKLEIK,Kd,[1],5 nM
same,Kd,[2],0.323 nM
A-H.63 (scFv) scFv: QVQLVQSGAEVKKPGSSVKVSCKASGHDFRLTYIHWVRQAPGQGLEWMGRVYAGSGNTKYNEKFKGRVTITADTSTSTAYMELSSLRSEDTAVYYCAVSYYSYDVLDYWGQGTTVTVSSGGGGSGGGGSGGGGSGGGGSDIQMTQSPSFLSASVGDRVTITCKASQNVEDRVVWHQQKPGKAPKALIYSSSHRYKGVPSRFSGSGSGTEFTLTISSLQPEDFATYFCQQFKSYPLTFGQGTKLEIK,Kd,[1],5.8 nM
same,Kd,[2],0.274 nM
A-H.66 (scFv) scFv: QVQLVQSGAEVKKPGSSVKVSCKASGHDFKLTYIHWVRQAPGQGLEWMGRIYAGSGNTKYNEKFKGRVTITADTSTSTAYMELSSLRSEDTAVYYCAVSYYSYDVLDYWGQGTTVTVSSGGGGSGGGGSGGGGSGGGGSDIQMTQSPSFLSASVGDRVTITCKASQNVGDRVVWHQQKPGKAPKALIYSSSHRYKGVPSRFSGSGSGTEFTLTISSLQPEDFATYFCQQFKSYPLTFGQGTKLEIK,Kd,[1],2.2 nM
same,Kd,[2],0.338 nM
A-H.13 (scFv) scFv: QVQLVQSGAEVKKPGSSVKVSCKASGTDFKLTYIHWVRQAPGQGLEWMGRIFPGSGNVKYNEKFKGRVTITADTSTSTAYMELSSLRSEDTAVYYCAGSYYSYDVLDYWGQGTTVTVSSGGGGSGGGGSGGGGSGGGGSDIQMTQSPSFLSASVGDRVTITCKASQNVDNRVAWYQQKPGKAPKALIYSSSHRYKGVPSRFSGSGSGTEFTLTISSLQPEDFATYFCQQFKSYPLTFGQGTKLEIK,Kd,[3],173 nM
same,Kd,[2],3.8 nM
A-H.65 (scFv) scFv: QVQLVQSGAEVKKPGSSVKVSCKASGHDFKLTYIHWVRQAPGQGLEWMGRISAGSGNTKYNEKFKGRVTITADTSTSTAYMELSSLRSEDTAVYYCAVSYYSYDVLDYWGQGTTVTVSSGGGGSGGGGSGGGGSGGGGSDIQMTQSPSFLSASVGDRVTITCKASQNVGDRVVWHQQKPGKAPKALIYSSSHRYKGVPSRFSGSGSGTEFTLTISSLQPEDFATYFCQQFKSYPLTFGQGTKLEIK,Kd,[1],0.725 nM
same,Kd,[2],0.396 nM
A-H.62 (scFv) scFv: QVQLVQSGAEVKKPGSSVKVSCKASGHDFRLTYIHWVRQAPGQGLEWMGRVSAGSGNVKYNEKFKGRVTITADTSTSTAYMELSSLRSEDTAVYYCAVSYYSYDVLDYWGQGTTVTVSSGGGGSGGGGSGGGGSGGGGSDIQMTQSPSFLSASVGDRVTITCKASQNVADRVVWHQQKPGKAPKALIYSSSHRYKGVPSRFSGSGSGTEFTLTISSLQPEDFATYFCQQFKSYPLTFGQGTKLEIK,Kd,[1],0.766 nM
same,Kd,[2],0.447 nM
A-H.60 (scFv) scFv: QVQLVQSGAEVKKPGSSVKVSCKASGHDFKLTYIHWVRQAPGQGLEWMGRVSAGSGNTKYNEKFKGRVTITADTSTSTAYMELSSLRSEDTAVYYCAVSYYSYDVLDYWGQGTTVTVSSGGGGSGGGGSGGGGSGGGGSDIQMTQSPSFLSASVGDRVTITCKASQNVGDRVAWHQQKPGKAPKALIYSSSHRYKGVPSRFSGSGSGTEFTLTISSLQPEDFATYFCQQFKSYPLTFGQGTKLEIK,Kd,[1],1.6 nM
same,Kd,[2],0.445 nM
A-H.58 (scFv) scFv: QVQLVQSGAEVKKPGSSVKVSCKASGHDFRLTYIHWVRQAPGQGLEWMGRVSAGSGNVKYNEKFKGRVTITADTSTSTAYMELSSLRSEDTAVYYCAVSYYSYDVLDYWGQGTTVTVSSGGGGSGGGGSGGGGSGGGGSDIQMTQSPSFLSASVGDRVTITCKASQNVGNRVVWHQQKPGKAPKALIYSSSHRYKGVPSRFSGSGSGTEFTLTISSLQPEDFATYFCQQFKSYPLTFGQGTKLEIK,Kd,[1],0.158 nM
same,Kd,[2],0.491 nM
"A-H.23 (scFv, not shown: a dimerising Fc or GST) scFv: QVQLVQSGAEVKKPGSSVKVSCKASGHDFRLTYIHWVRQAPGQGLEWMGRISAGSGNVKYNEKFKGRVTITADTSTSTAYMELSSLRSEDTAVYYCAGSYYSYDVLDYWGQGTTVTVSSGGGGSGGGGSGGGGSGGGGSDIQMTQSPSFLSASVGDRVTITCKASQNVADRVAWYQQKPGKAPKALIYSSSHRYKGVPSRFSGSGSGTEFTLTISSLQPEDFATYFCQQFKSYPLTFGQGTKLEIK",Kd,[2],1.7 nM
A-H.24 (scFv) scFv: QVQLVQSGAEVKKPGSSVKVSCKASGHDFHLWYIHWVRQAPGQGLEWMGRVSAGSGNVKYNEKFKGRVTITADTSTSTAYMELSSLRSEDTAVYYCAGSYYSYDVLDYWGQGTTVTVSSGGGGSGGGGSGGGGSGGGGSDIQMTQSPSFLSASVGDRVTITCKASQNVDNKVAWHQQKPGKAPKALIYSSSHRYKGVPSRFSGSGSGTEFTLTISSLQPEDFATYFCQQFKSYPLTFGQGTKLEIK,Kd,[2],12 nM
A-H.67 (scFv) scFv: QVQLVQSGAEVKKPGSSVKVSCKASGTDFKLTYIHWVRQAPGQGLEWMGRIFPGSGNVKYNEKFKGRVTITADTSTSTAYMELSSLRSEDTAVYYCAVSYYSYDVLDYWGQGTTVTVSSGGGGSGGGGSGGGGSGGGGSDIQMTQSPSFLSASVGDRVTITCKASQNVDNRVAWYQQKPGKAPKALIYSSSHRYKGVPSRFSGSGSGTEFTLTISSLQPEDFATYFCQQFKSYPLTFGQGTKLEIK,Kd,[2],20 nM
A-H.61 (scFv) scFv: QVQLVQSGAEVKKPGSSVKVSCKASGHDFKLTYIHWVRQAPGQGLEWMGRVSAGSGNTKYNEKFKGRVTITADTSTSTAYMELSSLRSEDTAVYYCAVSYYSYDVLDYWGQGTTVTVSSGGGGSGGGGSGGGGSGGGGSDIQMTQSPSFLSASVGDRVTITCKASQNVDNRVAWHQQKPGKAPKALIYSSSHRYKGVPSRFSGSGSGTEFTLTISSLQPEDFATYFCQQFKSYPLTFGQGTKLEIK,Kd,[1],0.607 nM
same,Kd,[2],0.349 nM
A-H.64 (scFv) scFv: QVQLVQSGAEVKKPGSSVKVSCKASGHDFKLTYIHWVRQAPGQGLEWMGRVSAGSGNTKYNEKFKGRVTITADTSTSTAYMELSSLRSEDTAVYYCAVSYYSYDVLDYWGQGTTVTVSSGGGGSGGGGSGGGGSGGGGSDIQMTQSPSFLSASVGDRVTITCKASQNVADRVVWHQQKPGKAPKALIYSSSHRYKGVPSRFSGSGSGTEFTLTISSLQPEDFATYFCQQFKSYPLTFGQGTKLEIK,Kd,[1],1 nM
same,Kd,[2],0.486 nM
A-H.57 (scFv) scFv: QVQLVQSGAEVKKPGSSVKVSCKASGHDFRLTYIHWVRQAPGQGLEWMGRVSAGSGNTKYNEKFKGRVTITADTSTSTAYMELSSLRSEDTAVYYCAVSYYSYDVLDYWGQGTTVTVSSGGGGSGGGGSGGGGSGGGGSDIQMTQSPSFLSASVGDRVTITCKASQNVGDRVVWHQQKPGKAPKALIYSSSHRYKGVPSRFSGSGSGTEFTLTISSLQPEDFATYFCQQFKSYPLTFGQGTKLEIK,Kd,[1],0.762 nM
same,Kd,[2],0.469 nM
"BJM0897 (antibody, V domains shown) VH: QVQLVQSGAEVKKPGSSVKVSCKASGTDFKLTYIHWVRQAPGQGLEWMGRIFPGSGNVKYNEKFKGRVTITADTSTSTAYMELSSLRSEDTAVYYCAGSYYSYDVLDYWGQGTTVTVSS VL: DIQMTQSPSFLSASVGDRVTITCKASQNVDNRVAWYQQKPGKAPKALIYSSSHRYKGVPSRFSGSGSGTEFTLTISSLQPEDFATYFCQQFKSYPLTFGQGTKLEIK",Kd,[1],69 nM
same,Kd,[2],7.2 nM
"BJM0899 (antibody, V domains shown) VH: QVQLVQSGAEVKKPGSSVKVSCKASGHDFRLTYIHWVRQAPGQGLEWMGRISAGSGNVKYNEKFKGRVTITADTSTSTAYMELSSLRSEDTAVYYCAGSYYSYDVLDYWGQGTTVTVSS VL: DIQMTQSPSFLSASVGDRVTITCKASQNVADRVAWYQQKPGKAPKALIYSSSHRYKGVPSRFSGSGSGTEFTLTISSLQPEDFATYFCQQFKSYPLTFGQGTKLEIK",Kd,[1],130 nM
same,Kd,[2],3.7 nM
"BJM0912 (antibody, V domains shown) VH: QVQLVQSGAEVKKPGSSVKVSCKASGHDFHLWYIHWVRQAPGQGLEWMGRVSAGSGNVKYNEKFKGRVTITADTSTSTAYMELSSLRSEDTAVYYCAGSYYSYDVLDYWGQGTTVTVSS VL: DIQMTQSPSFLSASVGDRVTITCKASQNVDNKVAWHQQKPGKAPKALIYSSSHRYKGVPSRFSGSGSGTEFTLTISSLQPEDFATYFCQQFKSYPLTFGQGTKLEIK",Kd,[1],326 nM
same,Kd,[2],28 nM
